Experimental data published in paper PMC9562052.

Tests used:
[1] = target: Plasmodium falciparum lactate dehydrogenase (PfLDH) (Plasmodium falciparum, UniProt Q76NM3 1-316); assay: ELASA sandwich
[2] = target: human lactate dehydrogenase (hLDH) (human, UniProt P00338 1-332); assay: ELASA sandwich

CTGGGCGGTAGAACCATAGTGACCCAGCCGTCTAC (ssDNA) [2008s aptamer, 3'-biotin]: binds [1]; no binding [2].
